This note sets out measurements from US20100297131A1.

Assay [1] concerns the target neuraminidase-treated human erythrocytes (human). Put plainly: erythrocyte rosetting on transfected COS7 cells, erythrocytes pretreated with neuraminidase.
Assay [2] concerns the target human erythrocytes, untreated (uncharacterized neuraminidase sensitive, trypsin resistant receptor on the surface of the erythrocyte) (human). Put plainly: erythrocyte rosetting on transfected COS7 cells, normalized to 5% transfection efficiency.

For the substance “PfRH1 region II (RII) expressed on the surface of COS7 cells as a GFP fusion protein (from UniProt P86148 334-1000)”, the fold reduction of binding against untreated erythrocytes in assay [1] was found to be 10 fold. The binding activity (%) in assay [2] was more than 70%.
On to “PfRH1 region III (RIII) expressed on the surface of COS7 cells as a GFP fusion protein”, for which, in assay [2], the binding activity (%) was less than 10%.
On the same count and under the same terms, then “PfRH1 region IV (RIV) expressed on the surface of COS7 cells as a GFP fusion protein”, with less than 10%; and “PfRH1 region VI (RVI) expressed on the surface of COS7 cells as a GFP fusion protein”, with less than 10%.
